These results are taken from patent US20250032577A1.

Experiment [1] concerns the target Gq proteins.
Experiment [2] addresses Gq proteins. The source holds these as a separate data set.
In experiment [3] the target is Gq proteins. The source holds these as a separate data set.

On to opto-a1AR (receptor), for which the Ca^2+ signal increase in HEK 293T cells in experiment [1] was 0.5 ΔF/F.
For the substance Turtle Opn5 (receptor), the light-induced increase in Ca^2+ signal (Calbryte 630 AM) in HEK 293T cells in experiment [2] is 3 ΔF/F.
Turning to Chicken Opn5 (receptor), in experiment [3], the Ca^2+ transients (Calbryte 630 AM) in primary mouse astrocytes was 8 ΔF/F. Further, in experiment [2], the light-induced increase in Ca^2+ signal (Calbryte 630 AM) in HEK 293T cells was 3 ΔF/F.
Take “human OPN4 (from UniProt Q9UHM6) (receptor)”: the Ca^2+ signal increase in HEK 293T cells in experiment [1] was 1 ΔF/F.
